The values below come from patent US7960140B2, “Avidin mutants” (Orion Diagnostica Oy, priority 2003, dated 2011).

Series [1] can be described thus: Microplate temperature stability assay. The series is classed as physicochemical. The protocol: FIG. 13. Temperature sensitivity determined by microplate assay. The avidin, dcAvd and scAvd sample is treated with the indicated temperature for certain time and the ability to bind biotinylated alkaline phosphatase was determined by coating the microplate with the sample.
The stability of the protein was studied by microplate assay as described in the article by Nordlund et al., (2003) J Biol Chem 278, 2479-83. In this assay, 50 mM Na—PO4 buffer containing 100 mM NaCl was used and the protein was heated to 80° C. or 90° C. for certain time. After that, the capacity to bind fluorescent biotin was measured as described in the article by Nordlund et al., (2003) J Biol Chem 278, 2479-83.

Series [2] is described as follows: Radiobiotin dissociation assay. The format is binding. To be noted: various temperatures. Here is the method:
FIG. 11. Radiobiotin dissociation assay for scAvd. Temperature-dependence of biotin dissociation rates measured by the [3H]biotin dissociation assay. Dissociation rate constant of radiobiotin was determined at various temperatures. The dissociation rate constants determined previously for avidin and streptavidin are also shown. The determined kdiss-values are connected by lines.
Radiobiotin assay was performed for scAvd in various temperatures.

Series [3] in a line: Free biotin-binding sites by quenching of intrinsic fluorescence on biotin titration. The protocol: The number of free binding sites was determined based on the quenching of the intrinsic fluorescence of avidin due to binding of biotin (Laitinen et al., (2003) J. Biol. Chem. 278, 4010-4014). The protein sample under study diluted to 2 ml volume in 50 mM NaPO4 pH 7.0+650 mM NaCl was titrated with 1 μl additions of 70 μM biotin solution in the same buffer. The protein concentration in this assay was 500±15 nM, and the concentration was determined by comparing the emission intensity averaged over 340-350 nm (excitation at 280 nm) to avidin standard sample. The protein sample was continuously mixed by magnetic stirrer.
Intensity from each biotin concentration was averaged over eight second measurement. The end-point of the quenching was determined by fitting a line to obtained data and determining the total quenching by averaging the last three measured intensities (FIG. 12, Table 6).

The nature of series [4]: Dissociation assay with fluorescent biotin conjugate (ArcDia BF560). The series is classed as binding. The protocol: The biotin-binding properties of produced mutagenised dcAvds were analysed by method based on the quenching of biotin-coupled fluorescent probe ArcDia BF560 (ArcDia Ltd., Turku, Finland) due to binding to avidin (FIG. 4). PerkinElmer LS55 luminometer was used for measurements. […] The spectra of 50 nM biotin-Bf560 solution in 50 mM Na-phosphate containing 650 mM NaCl was measured (red). Chicken avidin (Belovo S. A., Bastogne, Belgium) was added to final subunit concentration of 83 nM and green spectra was obtained.
Briefly, 50 nM free biotin-Bf560 solution in 50 mM Na-phosphate containing 650 mM NaCl was measured using excitation at 560 nm (2.5 nm slit) and emission was collected at 578 nm (5 nm slit). Continuous stirring (setting low) was used throughout the analysis. After 100 sec measurement, the protein under study was added to final biotin-binding subunit concentration 50 nM and the measurement was continued for 500 sec. […]
A one-phase dissociation model was used to analyse the data, as described elsewhere (Hytönen et al., (2004) Biochem J, in press). The dissociation rate constant (kdiss) was determined by fitting the equation −kdisst=ln(B/Bo) to the data. Bo is the measured maximum binding (100%) determined as the difference between the fluorescence of the free dye and the fluorescence of the protein-dye complex, and B is the amount of complex measured as a function of time. The first 500 seconds were omitted from the data to abolish the effect of the fast initial phase characteristic of avidin-BF560-biotin interaction (FIG. 9). The fraction of fluorescent biotin released after one-hour was determined, as well as the times of half-maximal (t½) and quarter-maximal (t¼) release. For dual chain avidins with modified binding sites, it was hypothesized that 50% of the binding sites would behave like those of wt avidin (cpAvd5S4 binding site of dcAvd was not modified). The dissociation data measured for wt avidin divided by two was subtracted from the data measured for the modified dual chain avidins and the dissociation curve was fitted to the difference as above.

B1: scAvd: single-chain avidin, two dcAvd fused tail-to-head via 12 amino-acid linker GGSGSGSGSGSG (SEQ ID NO:24) (protein, listed as Gallus gallus)
chain: MVHATSPLLLLLLLSLALVAPGLSARKRTQPTFGFTVNWKFSESTTVFTGQCFIDRNGKEVLKTMWLLRSSVNDIGDDWKATRVGINIFTRLRTQKEGGSGGSARKCSLTGKWTNDLGSNMTIGAVNSRGEFTGTYITAVTATSNEIKESPLHGTQNTINKSGGSTTVFTGQCFIDRNGKEVLKTMWLLRSSVNDIGDDWKATRVGINIFTRLRTQKEGGSGGSARKCSLTGKWTNDLGSNMTIGAVNSRGEFTGTYITAVTATSNEIKESPLHGTQNTINKRTQPTFGFTVNWKFSEGGSGSGSGSGSGRTQPTFGFTVNWKFSESTTVFTGQCFIDRNGKEVLKTMWLLRSSVNDIGDDWKATRVGINIFTRLRTQKEGGSGGSARKCSLTGKWTNDLGSNMTIGAVNSRGEFTGTYITAVTATSNEIKESPLHGTQNTINKSGGSTTVFTGQCFIDRNGKEVLKTMWLLRSSVNDIGDDWKATRVGINIFTRLRTQKEGGSGGSARKCSLTGKWTNDLGSNMTIGAVNSRGEFTGTYITAVTATSNEIKESPLHGTQNTINKRTQPTFGFTVNWKFSE
As to B1, the “activity after 32 min treatment” value in series [1] (80° C., 32 min) amounted to 26%. Moreover, the figures for the “heat inactivation” value in series [1] (90° C.) and in series [1] (100° C.) were “fast denaturation” and “fast inactivation”, respectively. Besides, the “dissociation of [3H]biotin” value in series [2] was “extremely slow dissociation of [3H]biotin”. Besides, the “quenching measured for whole emission spectrum (290-500 nm) due to biotin binding” value in series [3] (290-500 nm) turned out to be 39.7%. Besides, the “Fluorescence quenching (350 nm)” value in series [3] (intrinsic fluorescence, emission 350 nm, due to binding of biotin) stood at 44.4%. In series [3] (protein 500±15 nM, titrated with biotin), the “Number of free biotin-binding sites per quaternary unit” value was found to be 3.2. Further, the “Dissociation of fluorescent biotin Release 1 h” value in series [4] (25° C.) was 8.8%; in series [4] (50° C.) it was 62.3%. Also, the “Dissociation of fluorescent biotin kdiss” value was found to be 1.3e-05 s⁻¹ in series [4] (25° C.) and 0.00025 s⁻¹ in series [4] (50° C.).
